Drawing on patent publication US20140322196A1, this text covers activity on viral hemagglutination (HI) for 2 molecules.

Common to all, as to assay: cell-based or functional assay
In assay [1] the target is Hemagglutinin (HA) of Influenza A virus A/Roma-ISS/2/08 (Brisbane-like) (oseltamivir-sensitive) H1N1 (Influenza A virus A/RomaISS/2/08 H1N1).
In assay [2] the target is Hemagglutinin (HA) of Influenza A virus A/Turkey/Italy/2676/99 H7N1 (Influenza A virus A/Turkey/Italy/2676/99 H7N1).
Assay [3] deals with Hemagglutinin (HA) of Influenza A virus A/Parma/5/06 (Wisconsin-like) H3N2 (Influenza A virus A/Parma/05/06 H3N2).
Assay [4] addresses Hemagglutinin (HA) of Influenza A virus A/Puerto Rico/8/34 H1N1 (PR8 virus) (Influenza A virus A/Puerto Rico/8/34 H1N1) (UniProt P03452).

B1: bLf C-lobe (aa 345-689) (protein)
chain: VVWCAVGPEEQKKCQQWSQQSGQNVTCATASTTDDCIVLVLKGEADALNLDGGYIYTAGKCGLVPVLAENRKSSKHSSLDCVLRPTEGYLAVAVVKKANEGLTWNSLKDKKSCHTAVDRTAGWNIPMGLIVNQTGSCAFDEFFSQSCAPGADPKSRLCALCAGDDQGLDKCVPNSKEKYYGYTGAFRCLAEDVGDVAFVKNDTVWENTNGESTADWAKNLNREDFRLLCLDGTRKPVTEAQSCHLAVAPNHAVVSRSDRAAHVKQVLLHQQALFGKNGKNCPDKFCLFKSETKNLLFNDNTECLAKLGGRPTYEEYLGTEYVTAIANLKKCSTSPLLEACAFLTR
As to B1, the activity on viral hemagglutination (HI) turned out to be 10 nM in assay [1], 93.1 fM in assay [2], 6 nM in assay [3] and 12 nM in assay [4].

B2: bLf C-lobe (aa 285-689) (protein)
chain: SFQLFGSPPGQRDLLFKDSALGFLRIPSKVDSALYLGSRYLTTLKNLRETAEEVKARYTRVVWCAVGPEEQKKCQQWSQQSGQNVTCATASTTDDCIVLVLKGEADALNLDGGYIYTAGKCGLVPVLAENRKSSKHSSLDCVLRPTEGYLAVAVVKKANEGLTWNSLKDKKSCHTAVDRTAGWNIPMGLIVNQTGSCAFDEFFSQSCAPGADPKSRLCALCAGDDQGLDKCVPNSKEKYYGYTGAFRCLAEDVGDVAFVKNDTVWENTNGESTADWAKNLNREDFRLLCLDGTRKPVTEAQSCHLAVAPNHAVVSRSDRAAHVKQVLLHQQALFGKNGKNCPDKFCLFKSETKNLLFNDNTECLAKLGGRPTYEEYLGTEYVTAIANLKKCSTSPLLEACAFLTR
With B2, the activity on viral hemagglutination (HI) came out at 10 nM in assay [1], 93.1 fM in assay [2], 6 nM in assay [3] and 24 nM in assay [4].
